{
  "source": "patent US20230183713A1",
  "about": "“SITE-SPECIFIC RECOMBINASES FOR EFFICIENT AND SPECIFIC GENOME EDITING” (TECHNISCHE UNIVERSITÄt DRESDEN, published 2023)",
  "proteins": {"B1": {"name": "Cre recombinase monomer with Q311R mutation (protein)", "chain": "MSNLLTVHQNLPALPVDATSDEVRKNLMDMFRDRQAFSEHTWKMLLSVCRSWAAWCKLNNRKWFPAEPEDVRDYLLYLQARGLAVKTIQQHLGQLNMLHRRSGLPRPSDSNAVSLVMRRIRKENVDAGERAKQALAFERTDFDQVRSLMENSDRCQDIRNLAFLGIAYNTLLRIAEIARIRVKDISRTDGGRMLIHIGRTKTLVSTAGVEKALSLGVTKLVERWISVSGVADDPNNYLFCRVRKNGVAAPSATSQLSTRALEGIFEATHRLIYGAKDDSGQRYLAWSGHSARVGAARDMARAGVSIPEIMRAGGWTNVNIVMNYIRNLDSETGAMVRLLEDGD"}},
  "key": {"[1]": {"target": "T1, Cre recombinase monomer with Y324L mutation", "T1 chain": "B1 chain with R311Q, Y324L"}, "[2]": {"target": "T2, Cre recombinase monomer with W315Q mutation", "T2 chain": "B1 chain with R311Q, W315Q"}, "[3]": {"target": "T3, Cre recombinase monomer with Y324F mutation", "T3 chain": "B1 chain with R311Q, Y324F"}, "[4]": {"target": "T4, Cre recombinase monomer with Y324V mutation", "T4 chain": "B1 chain with R311Q, Y324V"}, "[5]": {"target": "T5, Cre recombinase monomer with Y324M mutation", "T5 chain": "B1 chain with R311Q, Y324M"}, "[6]": {"target": "T6, Cre recombinase monomer with Y324A mutation", "T6 chain": "B1 chain with R311Q, Y324A"}, "[7]": {"target": "T7, Cre recombinase monomer with W315M mutation", "T7 chain": "B1 chain with R311Q, W315M"}, "[8]": {"target": "T8, Cre recombinase monomer with Y324Q mutation", "T8 chain": "B1 chain with R311Q, Y324Q"}},
  "note": "Positions count from the first letter of the chain named. In names and notes the source's numbering stands.",
  "data": [
    {"protein": "B1", "values": [
      {"measurement": "Median dimer activity (recombination on loxP)", "setting": "[1]", "value": 95, "unit": "%"},
      {"measurement": "Median dimer activity (recombination on loxP)", "setting": "[2]", "value": 49, "unit": "%"},
      {"measurement": "Median dimer activity (recombination on loxP)", "setting": "[3]", "value": 95, "unit": "%"},
      {"measurement": "Median dimer activity (recombination on loxP)", "setting": "[4]", "value": 90, "unit": "%"},
      {"measurement": "Median dimer activity (recombination on loxP)", "setting": "[5]", "value": 96, "unit": "%"},
      {"measurement": "Median dimer activity (recombination on loxP)", "setting": "[6]", "value": 93, "unit": "%"},
      {"measurement": "Median dimer activity (recombination on loxP)", "setting": "[7]", "value": 95, "unit": "%"},
      {"measurement": "Median dimer activity (recombination on loxP)", "setting": "[8]", "value": 72, "unit": "%"}
    ]}
  ]
}
